Row | Substance | proteolytic cleavage, SDS-PAGE (Mouse IL12 (unmodified)) | proteolytic cleavage, SDS-PAGE (IL12Rβ1-LS-IL12) | proteolytic cleavage, SDS-PAGE (30 min, 37 C) (IL12Rβ1-VP-IL12)
1 | Recombinant human urokinase plasminogen activator (uPA) | These enzymes had no effect on IL12 itself | IL12Rβ1-LS-IL12 containing LSGRSDNH (SEQ ID NO:49) substrate was cleaved by uPA | –
2 | Recombinant mouse matrix metalloproteinase-2 (MMP2) | These enzymes had no effect on IL12 itself | – | MMP2 and MMP9 fully cleaved the IL12Rβ1 portion, yielding IL12 heterodimer (-60 kDa)

Source: patent US20220281936

Recombinant mouse matrix metalloproteinase-2 (MMP2), sequence (chain, as listed by the source): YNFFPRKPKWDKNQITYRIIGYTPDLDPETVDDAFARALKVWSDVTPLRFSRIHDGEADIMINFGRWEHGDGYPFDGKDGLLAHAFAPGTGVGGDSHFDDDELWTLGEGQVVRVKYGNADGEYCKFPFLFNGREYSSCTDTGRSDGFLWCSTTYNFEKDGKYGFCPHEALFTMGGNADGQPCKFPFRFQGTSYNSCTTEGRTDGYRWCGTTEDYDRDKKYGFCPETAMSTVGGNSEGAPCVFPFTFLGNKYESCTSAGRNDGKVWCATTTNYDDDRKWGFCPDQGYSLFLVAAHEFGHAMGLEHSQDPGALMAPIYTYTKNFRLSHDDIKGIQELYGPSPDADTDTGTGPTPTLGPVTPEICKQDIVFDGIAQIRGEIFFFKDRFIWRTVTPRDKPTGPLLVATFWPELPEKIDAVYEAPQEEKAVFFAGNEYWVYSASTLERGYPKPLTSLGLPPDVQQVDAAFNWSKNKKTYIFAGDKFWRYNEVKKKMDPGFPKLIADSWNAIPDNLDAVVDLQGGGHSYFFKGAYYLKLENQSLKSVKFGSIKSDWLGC
Mouse IL12 (unmodified), sequence (chain, as listed by the source, chain 1 of 2): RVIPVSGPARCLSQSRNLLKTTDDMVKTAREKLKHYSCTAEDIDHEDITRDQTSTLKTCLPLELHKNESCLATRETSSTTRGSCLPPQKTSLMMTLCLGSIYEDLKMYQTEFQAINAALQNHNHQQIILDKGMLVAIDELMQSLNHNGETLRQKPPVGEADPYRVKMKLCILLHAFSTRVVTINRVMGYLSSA
Mouse IL12 (unmodified), sequence (chain, as listed by the source, chain 2 of 2): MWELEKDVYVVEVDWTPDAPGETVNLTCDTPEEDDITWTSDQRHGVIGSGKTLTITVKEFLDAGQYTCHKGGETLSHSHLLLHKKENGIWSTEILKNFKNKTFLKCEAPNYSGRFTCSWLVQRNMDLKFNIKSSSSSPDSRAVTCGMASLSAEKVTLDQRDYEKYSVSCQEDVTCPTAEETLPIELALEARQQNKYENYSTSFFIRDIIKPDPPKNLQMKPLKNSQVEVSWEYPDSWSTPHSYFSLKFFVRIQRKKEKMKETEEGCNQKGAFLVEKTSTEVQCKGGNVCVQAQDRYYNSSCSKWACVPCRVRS
IL12Rβ1-LS-IL12, sequence (chain, as listed by the source, chain 1 of 2): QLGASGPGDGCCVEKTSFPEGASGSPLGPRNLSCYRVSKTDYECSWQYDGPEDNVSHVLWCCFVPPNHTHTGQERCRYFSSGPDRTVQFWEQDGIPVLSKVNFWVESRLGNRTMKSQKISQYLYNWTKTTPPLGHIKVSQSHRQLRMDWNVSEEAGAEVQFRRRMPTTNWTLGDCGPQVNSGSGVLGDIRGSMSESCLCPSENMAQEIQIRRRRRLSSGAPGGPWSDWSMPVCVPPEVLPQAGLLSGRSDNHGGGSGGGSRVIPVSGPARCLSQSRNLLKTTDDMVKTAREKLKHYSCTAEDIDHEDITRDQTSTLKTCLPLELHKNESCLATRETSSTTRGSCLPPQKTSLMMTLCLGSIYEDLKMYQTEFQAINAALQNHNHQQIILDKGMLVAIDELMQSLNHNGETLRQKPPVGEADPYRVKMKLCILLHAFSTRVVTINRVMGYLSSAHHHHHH
IL12Rβ1-LS-IL12, sequence (chain, as listed by the source, chain 2 of 2): as the sequence (chain, as listed by the source, chain 2 of 2) above
